Measurements reported in patent US20160159885A1.

Key:
pseudolysin = pseudolysin (UniProt P14756); assay: cell-based or functional assay
[1] = target: thermolysin (Bacillus thermoproteolyticus) (UniProt P00800); assay: cell-based or functional assay
Chain of UniProt P00800 (P00800 233-548 limits assumed): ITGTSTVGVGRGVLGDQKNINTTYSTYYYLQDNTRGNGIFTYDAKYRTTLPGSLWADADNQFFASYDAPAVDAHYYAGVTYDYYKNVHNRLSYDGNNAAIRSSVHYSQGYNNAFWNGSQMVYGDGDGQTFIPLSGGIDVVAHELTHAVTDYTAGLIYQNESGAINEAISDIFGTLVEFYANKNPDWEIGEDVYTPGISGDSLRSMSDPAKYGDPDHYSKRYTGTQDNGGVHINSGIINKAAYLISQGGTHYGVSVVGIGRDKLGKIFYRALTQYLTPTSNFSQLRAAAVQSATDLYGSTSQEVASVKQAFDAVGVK

Chain of UniProt P14756 (P14756 198-498 limits assumed): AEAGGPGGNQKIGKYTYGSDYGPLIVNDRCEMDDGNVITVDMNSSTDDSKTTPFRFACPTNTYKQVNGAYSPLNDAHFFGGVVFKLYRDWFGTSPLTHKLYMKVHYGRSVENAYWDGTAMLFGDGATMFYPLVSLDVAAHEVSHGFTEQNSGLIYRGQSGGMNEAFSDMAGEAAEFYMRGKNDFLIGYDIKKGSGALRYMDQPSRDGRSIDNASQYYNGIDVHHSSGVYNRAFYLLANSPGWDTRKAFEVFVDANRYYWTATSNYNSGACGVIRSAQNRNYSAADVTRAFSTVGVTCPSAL

## wtIMPIα (wild-type insect metalloproteinase inhibitor IMPIα) (from UniProt P82176 20-88)
pseudolysin
  IC50 wt PLN; column Pos35 InA: 21.8 nM
  IC50 wt PLN; column Pos35 InF: 21.9 nM
  IC50 wt PLN; column Pos35 InL: 21.9 nM
  IC50 wt PLN; column Pos35 InM: 21.9 nM
  IC50 wt PLN; column Pos35 InV: 22.2 nM
  IC50 wt PLN; column Pos35 InW: 22.1 nM
  IC50 wt PLN; column Pos35 InY: 21.9 nM
  IC50 wt PLN; column Pos36 InA: 22 nM
  IC50 wt PLN; column Pos36 InD: 20.9 nM
  IC50 wt PLN; column Pos36 InE: 21.6 nM
  IC50 wt PLN; column Pos36 InF: 22.3 nM
  IC50 wt PLN; column Pos36 InG: 21.6 nM
  IC50 wt PLN; column Pos36 InH: 22 nM
  IC50 wt PLN; column Pos36 InK: 22 nM
  IC50 wt PLN; column Pos36 InM: 22 nM
  IC50 wt PLN; column Pos36 InQ: 21.9 nM
  IC50 wt PLN; column Pos36 InR: 22.3 nM
  IC50 wt PLN; column Pos36 InT: 21.9 nM
  IC50 wt PLN; column Pos36 InV: 22.1 nM
  IC50 wt PLN; column Pos36 InW: 22.1 nM
  IC50 wt PLN; column Pos36 InY: 22.2 nM
  IC50 wt PLN; column Pos37 NnA: 21.9 nM
  IC50 wt PLN; column Pos37 NnC: 20.7 nM
  IC50 wt PLN; column Pos37 NnD: 22.6 nM
  IC50 wt PLN; column Pos37 NnE: 21.9 nM
  IC50 wt PLN; column Pos37 NnG: 21.8 nM
  IC50 wt PLN; column Pos37 NnH: 21.2 nM
  IC50 wt PLN; column Pos37 NnL: 20.8 nM
  IC50 wt PLN; column Pos37 NnM: 30.8 nM
  IC50 wt PLN; column Pos37 NnP: 20.8 nM
  IC50 wt PLN; column Pos37 NnQ: 22.2 nM
  IC50 wt PLN; column Pos37 NnS: 21.5 nM
  IC50 wt PLN; column Pos37 NnV: 21.2 nM
  IC50 wt PLN; column Pos37 NnW: 21.5 nM
  IC50 wt PLN; column Pos37 NnY: 21.5 nM
  IC50 wt PLN; column Pos38 InF: 21.1 nM
  IC50 wt PLN; column Pos38 InG: 22.8 nM
  IC50 wt PLN; column Pos38 InH: 23.1 nM
  IC50 wt PLN; column Pos38 InL: 21.7 nM
  IC50 wt PLN; column Pos38 InM: 21.4 nM
  IC50 wt PLN; column Pos38 InQ: 22.2 nM
  IC50 wt PLN; column Pos38 InV: 21.5 nM
  IC50 wt PLN; column Pos38 InW: 21.1 nM
  IC50 wt PLN; column Pos38 InY: 21.1 nM
  IC50 wt PLN; column Pos39 RnA: 22.1 nM
  IC50 wt PLN; column Pos39 RnF: 20.5 nM
  IC50 wt PLN; column Pos39 RnG: 20.3 nM
  IC50 wt PLN; column Pos39 RnI: 21.2 nM
  IC50 wt PLN; column Pos39 RnK: 22 nM
  IC50 wt PLN; column Pos39 RnL: 20.1 nM
  IC50 wt PLN; column Pos39 RnM: 22.1 nM
  IC50 wt PLN; column Pos39 RnQ: 22.1 nM
  IC50 wt PLN; column Pos39 RnT: 21.9 nM
  IC50 wt PLN; column Pos39 RnV: 21.8 nM
  IC50 wt PLN; column Pos39 RnW: 19.9 nM
  IC50 wt PLN; column Pos39 RnY: 22.5 nM
  IC50 wt PLN; wt (avg), Pos35 block: 22 nM
  IC50 wt PLN; wt (avg), Pos36 block: 21.9 nM
  IC50 wt PLN; wt (avg), Pos37 block: 22.2 nM
  IC50 wt PLN; wt (avg), Pos38 block: 21.8 nM
  IC50 wt PLN; wt (avg), Pos39 block: 21.4 nM
[1]
  IC50 wt TLN; column Pos35 InA: 12.6 nM
  IC50 wt TLN; column Pos35 InF: 12.6 nM
  IC50 wt TLN; column Pos35 InL: 12.6 nM
  IC50 wt TLN; column Pos35 InM: 12.6 nM
  IC50 wt TLN; column Pos35 InV: 12.6 nM
  IC50 wt TLN; column Pos35 InW: 12.6 nM
  IC50 wt TLN; column Pos35 InY: 12.6 nM
  IC50 wt TLN; column Pos36 InA: 12.4 nM
  IC50 wt TLN; column Pos36 InD: 12.5 nM
  IC50 wt TLN; column Pos36 InE: 12.5 nM
  IC50 wt TLN; column Pos36 InF: 12.6 nM
  IC50 wt TLN; column Pos36 InG: 12.6 nM
  IC50 wt TLN; column Pos36 InH: 12.4 nM
  IC50 wt TLN; column Pos36 InK: 12.5 nM
  IC50 wt TLN; column Pos36 InM: 12.4 nM
  IC50 wt TLN; column Pos36 InQ: 12.6 nM
  IC50 wt TLN; column Pos36 InR: 12.6 nM
  IC50 wt TLN; column Pos36 InT: 12.4 nM
  IC50 wt TLN; column Pos36 InV: 12.6 nM
  IC50 wt TLN; column Pos36 InW: 12.5 nM
  IC50 wt TLN; column Pos36 InY: 12.6 nM
  IC50 wt TLN; column Pos37 NnA: 12.6 nM
  IC50 wt TLN; column Pos37 NnC: 12.7 nM
  IC50 wt TLN; column Pos37 NnD: 12.1 nM
  IC50 wt TLN; column Pos37 NnE: 12.6 nM
  IC50 wt TLN; column Pos37 NnG: 12.6 nM
  IC50 wt TLN; column Pos37 NnH: 12.8 nM
  IC50 wt TLN; column Pos37 NnL: 11.1 nM
  IC50 wt TLN; column Pos37 NnM: 11.7 nM
  IC50 wt TLN; column Pos37 NnP: 12 nM
  IC50 wt TLN; column Pos37 NnQ: 12.6 nM
  IC50 wt TLN; column Pos37 NnS: 12.5 nM
  IC50 wt TLN; column Pos37 NnV: 12.7 nM
  IC50 wt TLN; column Pos37 NnW: 12.7 nM
  IC50 wt TLN; column Pos37 NnY: 12.5 nM
  IC50 wt TLN; column Pos38 InF: 12.6 nM
  IC50 wt TLN; column Pos38 InG: 12.5 nM
  IC50 wt TLN; column Pos38 InH: 12.5 nM
  IC50 wt TLN; column Pos38 InL: 12.6 nM
  IC50 wt TLN; column Pos38 InM: 12.5 nM
  IC50 wt TLN; column Pos38 InQ: 12.6 nM
  IC50 wt TLN; column Pos38 InV: 12.6 nM
  IC50 wt TLN; column Pos38 InW: 12.4 nM
  IC50 wt TLN; column Pos38 InY: 12.6 nM
  IC50 wt TLN; column Pos39 RnA: 12.5 nM
  IC50 wt TLN; column Pos39 RnF: 12.5 nM
  IC50 wt TLN; column Pos39 RnG: 12.7 nM
  IC50 wt TLN; column Pos39 RnI: 12.5 nM
  IC50 wt TLN; column Pos39 RnK: 12.5 nM
  IC50 wt TLN; column Pos39 RnL: 12.4 nM
  IC50 wt TLN; column Pos39 RnM: 12.6 nM
  IC50 wt TLN; column Pos39 RnQ: 12.6 nM
  IC50 wt TLN; column Pos39 RnV: 12.5 nM
  IC50 wt TLN; column Pos39 RnW: 12.4 nM
  IC50 wt TLN; wt (avg), Pos35 block: 12.6 nM
  IC50 wt TLN; wt (avg), Pos36 block: 12.5 nM
  IC50 wt TLN; wt (avg), Pos37 block: 12.4 nM
  IC50 wt TLN; wt (avg), Pos38 block: 12.5 nM
  IC50 wt TLN; wt (avg), Pos39 block: 12.5 nM
